B1: TEVP-activatable GSDMA: GSDMA with TEVP cleavage site between N-terminal and C-terminal domains; SEQ ID NO: 16 (protein)
chain: MGSPVFEDVTRALVRELNPRGDLTPLDSLIDFKHFRPFCLVLRKRKSTLFWGARYVRTDYTLLDLLEPGSSPSDLTDSGNFSFKNMLDVQVQGLVEVPKTVKVKGTAGLSQSSTLEVQTLSVAPSALENLKKERKLSADHSFLNEMRYHEKNLYVVMEAVEAKQEVTVEQTGNANAIFSLPSLALLGLQGSLNNNKAVTIPKGCVLAYRVRLLRVFLFNLWDIPYICNDSMQTFPKIRRVPCSAFISPTQMISEEPEEEKLIGEENLYFQSMHEDFKTLKEEVQRETQEVEKLSPVGRSSLLTSLSHLLGKKKELQDLEQKLEGALDKGQKVTLEALPKDVLLSKDAMDAILYFLGALTELTEEQLKILVKSLEKKILPVQLKLVESTLEQNFLQDKEGVFPLQPDLLSSLGEEELTLTEALVGLSGLEVQRSGPQYAWDPDTRHNLCALYAGLSLLHLLSRKSNALTYCALS
B2: tobacco etch virus protease (protein)
chain: MGSGESLFKGPRDYNPISSTICHLTNESDGHTTSLYGIGFGPFIITNKHLFRRNNGTLLVQSLHGVFKVKNTTTLQQHLIDGRDMIIIRMPKDFPPFPQKLKFREPQREERICLVTTNFQTKSMSSMVSDTSCTFPSSDGIFWKHWIQTKDGQCGSPLVSTRDGFIVGIHSASNFTNTNNYFTSVPKNFMELLTNQEAQQWVSGWRLNADSVLWGGHKVFMVKPEEPFQPVKEATQLMNS
notes: viral input protease
B3: TEVP-activatable caspase-3: caspase-3 whose cleavage site between large and small subunits was replaced by a TEVP cleavage site; SEQ ID NO: 10 (protein)
chain: MGSENTENSVDSKSIKNLEPKIIHGSESMDSGISLDNSYKMDYPEMGLCIIINNKNFHKSTGMTSRSGTDVDAANLRETFRNLKYEVRNKNDLTREEIVELMRDVSKEDHSKRSSFVCVLLSHGEEGIIFGTNGPVDLKKITNFFRGDRCRSLTGKPKLFIIQACRGTELDCGIETENLYFQSGVDDDMACHKIPVEADFLYAYSTAPGYYSWRNSKDGSWFIQSLCAMLKQYADKLEFMHILTRVNRKVATEFESFSFDATFHAKKQIPCIVSMLTKELYFYH

Columns and labels:
HEK cells = assay: Transient DNA transfection of HEK cells, Annexin/Sytox staining, flow cytometry; format: cell-based, human; conditions: for cell death without the activating TEVP: expressed at high levels indicated by co-transfected Cherry
Protocol: HEK cells were transiently co-transfected with DNA encoding the circuits, often along with Cherry, a fluorescent protein marker, and cells were analyzed by flow cytometry 16 to 24 hours later. To quantify cell death, the cells were strained with Annexin, Sytox, or both. Annexin stains apoptotic cells by binding to phosphatidylserine exposed on the outer leaflet, and pyroptotic cells by binding to phosphatidylserine in the inner leaflet after membrane permeabilization. In contrast, Sytox, a membrane-impermeable dye, primarily stains pyroptotic cells. Therefore, apoptotic cells are typically Annexin-high and Sytox-low, while pyroptotic cells are Annexin-high and Sytox-high (FIG. 7B). For simplicity, in experiments involving only a single death mode, a single relevant dye was often used. To focus on cells influenced by the circuits, the fraction of Annexin- or Sytox-positive cells was calculated after gating on the fluorescent co-transfection marker (FIG. 7C).
On the day before transfection, HEK cells were seeded at a density of 0.3-0.6 million cells per well on a 12-well plate, 0.1-0.3 million cells per well on a 24-well plate, or 15,000-50,000 cells per well on a 96-well plate. The cells were allowed to attach to the plate overnight, for at least 8 hours. On the day of transfection, we treated the cells with purified DNA plasmids encoding circuit components. In addition to plasmids encoding circuit components, we often included a plasmid encoding a fluorescent co-transfection marker, at roughly 50 ng DNA per well on a 24-well plate. Given the different number of molecular components in each synthetic circuit and their various relative ratios, the total amount of DNA ranged from 50 to 1 μg per well on a 24-well plate, and was scaled by […] when other 12-well or 96-well plates were used, respectively. On the same plate, we often equalized the total amount of DNA across all transfected wells, using a filler plasmid encoding the neomycin resistance gene. To transfect cells with plasmid DNA, we used three types of transfection reagents—Lipofectamine 2000 (Thermo Fisher), Lipofectamine 3000 (Thermo Fisher), and FuGENE HD (Promega), according to manufacturers' instructions. Briefly, for a typical transfection experiment on a 24-well plate, we mixed plasmids and the transfection reagent, around 200 ng of DNA per 1 μl of Lipofectamine 2000, in 25 μl of Opti-MEM reduced serum medium (Thermo Fisher), incubated the mixture for 5-10 min at room temperature, and then added another 25 μl of Opti-MEM before transferring the mixture dropwise to culture wells. We also performed some transfection experiments using the Lipofectamine 3000 kit (Thermo Fisher), at a ratio of 2,000 ng of DNA, 2 ul of 4 ul of P3000, and 3 μl of Lipofectamine 3000. We similarly diluted the mixture in Opti-MEM before adding it to cells. For transfection with FuGENE, we used a ratio of 4 μl FuGENE:1 μg of DNA, and incubated the DNA-FuGENE mixture at room temperature for 5 min before transfection. To enable protein expression from plasmids with a doxycycline-inducible promoter, doxycycline was added to the cell culture at a final concentration of 100 ng/mL. In experiments involving Q-VD-OPh, the compound was added to the cell culture at a final concentration of 30 μM, immediately after the cells received the transfection mixture. To transfect cells with in vitro transcribed mRNA, Lipofectamine MessengerMax (Thermo Fisher) was used. Briefly, for transfection of one well in a 96-well plate, 0.1 μL of Lipofectamine MessengerMAX was diluted in 1.25 μL Opti-MEM and incubated for 10 minutes at room temperature. mRNA was then added to Opti-MEM to the appropriate conditions at the following amounts: 12.5 ng of fluorescent co-transfection marker, 56.25 ng of protease, and 56.25 ng of engineered executioner. Diluted mRNA was then added to diluted MessengerMAX reagent and incubated for 5 minutes at room temperature before addition to Jurkat or THP-1 cells in RPMI media. […]

[1] = system: sender and receiver HEK cells
Protocol: For experiments that involved circuit senders and receivers, sender HEK cells were seeded on a 12-well plate at a density of 0.6 million cells per well (day 1). On the following day (day 2), using Lipofectamine 3000 (Thermo Fisher), we transfected the sender cells with 450 ng of pLVX-M-PURO plasmid containing the cargo, 450 ng of M-psPAX2, and 100 ng of pCMV-VSV-G. To generate VLPs encoding two cargoes, we performed similar transfections using two cargo-containing plasmids, each at 225 ng. At 8 hours post transfection, we removed the media containing residual Lipofectamine particles, washed the cells gently with fresh media, and replaced the media. One day after transfection of sender cells (day 3), we typically seeded receiver HEK cells on a 24-well plate at a density of around 0.3 million cells per well or on a 96-well plate at around 75,000 cells per well. We also tried other receiver densities, in which case we needed to dilute the cells if they approached confluency during the course of the experiment. Two days after transfection of sender cells (day 4), we collected the sender supernatant, centrifuged it at 3,000 g for 5 min to remove cell debris, and passed it through a cellulose acetate filter with 0.45 μm pore size (VWR). […] After about 40 hours, we collected the co-cultured cells, stained them with Sytox, and analyzed cell death by flow cytometry. […]

HEK293FT cells [2] = assay: Polytransfection of input proteases and caspase cleavage-site variants, Annexin staining; format: cell-based, human
Text: The cleavage efficiency of proteases is known to depend on corresponding accessible cleavage sites. Mutations to native protease cleavage sites can slow (i) the recruitment of substrates to the protease active site, (ii) catalytic reaction steps, or (iii) the release of the substrate from the protease. As described herein, this property to modulate cell death executioner activation thresholds. Specifically, we surveyed the following constructs with modified protease cleavage sites across a wide range of possible cell death executioner and input protease expression regimes: […]
To evaluate how the mutated protease cleavage sites affect Caspase 3 activation, we polytransfected (i) input proteases (P3/P4-zipper reconstituted TEVP as a positive control, split TEVP without reconstitution domain as a negative control, or NeoR to evaluate caspase baseline activity; all with IRES-BFP to enable expression tracking) and (ii) output caspase (caspase+co-transfected GFP for expression tracking) in HEK293FT cells. Annexin staining as described above in Example 1 was used to quantify cell death.

HEK293FT cells [3] = assay: Co-transfection time course, cell death every 24 h over 4 days; format: cell-based, human; conditions: P3/P4-zipper reconstituted TEVP
Protocol: Moreover, it was evaluated if some of these mutations affect the maximal caspase activation accessible and the time dependency between caspase activation and cell death by co-transfecting (i) input proteases (P3/P4-zipper reconstituted TEVP as a positive control, split TEVP without reconstitution domain as a negative control, or NeoR to evaluate caspase baseline activity; all with IRES-BFP to enable expression tracking) and (ii) output caspase (“ENLYFQS” (SEQ ID NO: 2)/“ENLYFQQ” (SEQ ID NO: 4)/“ENLFFQQ” (SEQ ID NO: 7)+co-transfected GFP for expression tracking) in HEK293FT cells and measuring cell death every 24 h over the course of 4 days.

Row | Molecule | mode of cell death, Sytox and Annexin double staining (HEK cells; background of TEVP activating TEVP-activatable caspase-3) | cell death without the activating TEVP (HEK cells) | sender cell death [1] | activation of cognate engineered GSDMs containing the cleavage sites (HEK cells; tev, tvmv and hcv sites) | Sytox uptake (HEK cells; co-transfected with TEVP) | cell death / apoptosis, Annexin staining (HEK cells; with TEVP, flow cytometry 16 to 24 hours after DNA transfection) | activation at high caspase expression with non-reconstituted split protease (HEK293FT cells [2]) | input/output expression required for caspase activation (activation threshold) (HEK293FT cells [2]; order, decreasing: ENLFFQQ, ENLFFQY, ENLYFQS+TEVP-cleavable DHFR, ENLFFQS~ENLYFQY~ENLYFQQ, ENLYFQS, both TEVP and TVMVP cleavage site) | maximal caspase activation / maximal fraction of dead cells (HEK293FT cells [3])
1 | B1 | converted apoptosis to pyroptosis | induced noticeable cell death even without the activating TEVP | neither circuit component alone triggered substantial sender cell death |  |  |  |  |  | 
2 | B2 |  |  | neither circuit component alone triggered substantial sender cell death | orthogonally activated their cognate engineered GSDMs |  |  |  |  | 
3 | B3 |  | induced noticeable cell death even without the activating TEVP |  |  | only modestly took up Sytox | ability of the modified caspase-3 to kill HEK cells when co-transfected with TEVP was verified | leaky activation | in decreasing order | comparable maximal fraction of dead cells

From US20250152743A1, “SYNPOPTOSIS CIRCUITS FOR PROGRAMMABLE CELL DEATH CONTROL” (California Institute of Technology, priority 2023, published 2025)
